In assay [1] the target is T1, NADP-Malate Dehydrogenase (Zea mays, UniProt P15719).
T1 construct: NADP-malate dehydrogenase (NADP-MDH) and fructose-1,6-bisphosphatase (FBPase) were purified from leaves of corn; from tissue; host or cells: corn leaves
T1 sequence (P15719 whole entry, looked up): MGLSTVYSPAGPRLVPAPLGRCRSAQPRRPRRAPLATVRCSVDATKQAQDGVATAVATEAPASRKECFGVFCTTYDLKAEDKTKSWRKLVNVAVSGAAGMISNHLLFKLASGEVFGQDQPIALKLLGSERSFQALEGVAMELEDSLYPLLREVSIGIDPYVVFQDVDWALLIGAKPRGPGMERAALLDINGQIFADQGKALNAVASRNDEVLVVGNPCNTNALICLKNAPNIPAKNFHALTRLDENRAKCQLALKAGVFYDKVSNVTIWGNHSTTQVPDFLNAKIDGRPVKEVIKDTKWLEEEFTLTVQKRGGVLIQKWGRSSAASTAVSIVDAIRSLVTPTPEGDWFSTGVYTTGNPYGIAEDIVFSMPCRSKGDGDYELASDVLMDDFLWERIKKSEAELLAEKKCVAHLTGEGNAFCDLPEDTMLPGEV
As to the kind of experiment: Activation of chloroplast NADP-malate dehydrogenase by thioredoxin-reduced proteins. The settings on record: 20 μg protein; DTT→Thioredoxin→Indicated Protein→Target Enzyme. It counts as biochemical, corn. On the procedure:
The NADP-MDH, FBPase, NTR and Thioredoxin h assay methods were according to Florencio, F. J. et al. (1988), Arch. Biochem. Biophys. 266:496-507 with slight modifications as indicated. For enzyme activation assays, the preincubation time was 20 min unless specified otherwise.
The capability to replace a specific thioredoxin in the activation of chloroplast enzymes is one test for the ability of thiol groups of a given protein to undergo reversible redox change. […] A case in point is purothionin which, when reduced by thioredoxin h activates chloroplast FBPase (Wada, K. et al. (1981), FEBS Lett. 124:237-240, and Johnson, T. C. et al. (1987), Plant Physiol. 85:446-451). The FBPase, whose physiological activator is thioredoxin f, is unaffected by thioredoxin h. In this Example, the ability of cystine-rich proteins to activate FBPase as well as NADP-MDH was tested as set forth above. […]
The Wada et al., 1981 protocol was used for assaying NADP-malate dehydrogenase and fructose 1,6 bisphosphatase in the presence of thioredoxin and 2S protein. […] The 2S protein was monitored during purification by mBBr/SDS-polyacrylamide gel electrophoresis following its reduction by dithiothreitol and E. coli thioredoxin (Crawford et al., 1989; Kobrehel et al., 1991).

In assay [2] the test system is wheat protease preparation. The assay is described as follows: Proteolysis by a plant protease preparation (SDS-PAGE, laser densitometer). It counts as biochemical. On the procedure:
The endosperm (10-15 g fresh weight) isolated from 5-day germinated wheat seeds by excising the roots and shoots was extracted for 30 minutes at 4° C. with 5 volumes of 200 mM sodium acetate, pH 4.6, containing 10 mM β-mercaptoenthanol. The homogenate was centrifuged for 20 minutes at 48,000 g, 4° C. The pellet was discarded and the supernatant fluid was fractionated with 30-70% ammonium sulfate. This fraction, which represented the protease preparation, was resuspended in a minimum volume of 20 mM sodium acetate, pH 4.6, containing 10 mM β-mercaptoenthanol, and dialyzed against this buffer overnight at 4° C.
Unless indicated, the reduction of the trypsin inhibitors (0.4 mg/ml) was carried out in 0.1 ml of 20 mM sodium phosphate buffer, pH 7.9 containing 10 mM EDTA at 30° C. for 2 hours. […] Proteolytic products were analyzed by electrophoresis with 12% or 16% SDS polyacrylamide slab gels (Laemmli, 1970). […]
To test whether the reduced forms of KTI and BBTI show decreased stability to proteases other than trypsin, both the reduced and oxidized forms of KTI and BBTI were incubated with a wheat protease preparation or with subtilisin and the proteolytic products were analyzed by SDS-PAGE. The extent of proteolysis was determined by measuring the abundance of intact protein on SDS gels by laser densitometer. […]

The values that follow come from patent publication US6677433B2 (The Regents of the University of California, priority 2001, dated 2004).

B1: Soybean Kunitz: Kunitz soybean trypsin inhibitor (protein, UniProt P01070 25-205, looked up)
Trypsin inhibitor A: DFVLDNEGNPLENGGTYYILSDITAFGGIRAAPTGNERCPLTVVQSRNELDKGIGTIISSPYRIRFIAEGHPLSLKFDSFAVIMLCVGIPTEWSVVEDLPEGPAVKIGENKDAMDGWFRLERVSDDEFNNYKLVFCPQQAEDDKCGDIGISIDHDDGTRRLVVSKNKPLVVQFQKLDKESL
With B1, the “ACTIVITY, NADP-MDH” value in assay [1] came out at 2 nkat/mg. The “degraded by wheat protease preparation” value in assay [2] was “about 80%”.
